The target in assay [1] is prothymosin α (unlabeled, wildtype) (human) (UniProt P06454). In words: NMR titration.
In assay [2] the target is ProTα labeled at positions 56 and 110 (FRET-labeled prothymosin α) (human) (UniProt P06454). In words: FRET or BRET. A general note: Bioluminescence resonance energy transfer reports proximity on the nanometre scale.
For assay [3] the target is unchanged. Kind of assay: stopped-flow FRET kinetics.

The values that follow come from publication PMC6264893.

Chain of linker histone H1.0 (P07305 whole entry): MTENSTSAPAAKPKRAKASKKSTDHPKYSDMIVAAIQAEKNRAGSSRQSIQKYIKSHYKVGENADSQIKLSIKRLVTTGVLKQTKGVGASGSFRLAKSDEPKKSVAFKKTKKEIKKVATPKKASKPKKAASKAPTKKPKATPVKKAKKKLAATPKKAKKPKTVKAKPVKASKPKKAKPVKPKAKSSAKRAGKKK

The term stoichiometry N denotes the number of molecules, sites or subunits per partner or assembly. The term Kd denotes the equilibrium constant for the complex coming apart. Turning to “globular domain of H1 (domain or fragment)”, the stoichiometry N in assay [1] is over 4. For the same substance, the Kd in assay [2] was 1900 nM.

For orientation: koff means the rate constant with which the complex falls apart. Low values mean slow dissociation, high ones fast dissociation. “linker histone H1.0 (from UniProt P07305 1-194) (natural protein)”: the koff in assay [3] turned out to be 0.0065 s⁻¹.
